{"source": "the supplement of paper PMC9112550", "about": "“Optimization of the antimicrobial peptide Bac7 by deep mutational scanning” (BMC Biology, 2022);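 also: peptides expressed intracellularly from a pBAD plasmid library in pooled LB shake-flask culture, induced with 0.3% L-arabinose, DNA abundance read by NGS, three biological replicates, DESeq2 with apeglm shrinkage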", "data": [{"tested_on": "Escherichia coli TOP10", "assay": "shrunken log2 fold change of peptide-encoding DNA abundance (4.5 h post-induction vs induction); higher = less antimicrobial activity (less host growth inhibition)", "details": "time post-induction: 4.5 h; library: site-saturation at positions 5, 18, 19, 20", "values": [{"sequence": "RRIRERPPRLPRPRPRPAFGPRP", "shrunken log2 fold change": 0.353}, {"sequence": "RRIRTRPPRLPRPRPRPWEAPRP", "shrunken log2 fold change": 0.337}, {"sequence": "RRIRFRPPRLPRPRPRPSYHPRP", "shrunken log2 fold change": -0.485}, {"sequence": "RRIRRRPPRLPRPRPRPYLQPRP", "shrunken log2 fold change": -0.548}, {"sequence": "RRIRYRPPRLPRPRPRPRQQPRP", "shrunken log2 fold change": 0.226}, {"sequence": "RRIRLRPPRLPRPRPRPSATPRP", "shrunken log2 fold change": 0.321}, {"sequence": "RRIRPRPPRLPRPRPRPLPKPRP", "shrunken log2 fold change": 0.216}, {"sequence": "RRIRKRPPRLPRPRPRPGWTPRP", "shrunken log2 fold change": 0.438}, {"sequence": "RRIRKRPPRLPRPRPRPPSNPRP", "shrunken log2 fold change": 0.714}, {"sequence": "RRIRWRPPRLPRPRPRPWNLPRP", "shrunken log2 fold change": -0.0421}, {"sequence": "RRIRLRPPRLPRPRPRPPVHPRP", "shrunken log2 fold change": 0.0348}, {"sequence": "RRIRARPPRLPRPRPRPCERPRP", "shrunken log2 fold change": -0.00198}, {"sequence": "RRIRTRPPRLPRPRPRPDTPPRP", "shrunken log2 fold change": -0.193}, {"sequence": "RRIRRRPPRLPRPRPRPLMWPRP", "shrunken log2 fold change": 0.163}, {"sequence": "RRIRARPPRLPRPRPRPSEMPRP", "shrunken log2 fold change": 0.29}, {"sequence": "RRIRIRPPRLPRPRPRPPEIPRP", "shrunken log2 fold change": -0.578}, {"sequence": "RRIRIRPPRLPRPRPRPMGWPRP", "shrunken log2 fold change": 0.237}, {"sequence": "RRIRERPPRLPRPRPRPWFQPRP", "shrunken log2 fold change": -0.0883}, {"sequence": "RRIRYRPPRLPRPRPRPYDNPRP", "shrunken log2 fold change": -0.0463}, {"sequence": "RRIRIRPPRLPRPRPRPWFHPRP", "shrunken log2 fold change": -0.768}, {"sequence": "RRIRHRPPRLPRPRPRPPYGPRP", "shrunken log2 fold change": 0.0267}, {"sequence": "RRIRERPPRLPRPRPRPKNPPRP", "shrunken log2 fold change": -0.503}, {"sequence": "RRIRQRPPRLPRPRPRPCSPPRP", "shrunken log2 fold change": 0.0218}, {"sequence": "RRIRYRPPRLPRPRPRPNTLPRP", "shrunken log2 fold change": -0.704}, {"sequence": "RRIRCRPPRLPRPRPRPHYYPRP", "shrunken log2 fold change": -1.07}, {"sequence": "RRIRMRPPRLPRPRPRPNRNPRP", "shrunken log2 fold change": -0.292}, {"sequence": "RRIRMRPPRLPRPRPRPMFLPRP", "shrunken log2 fold change": -0.273}, {"sequence": "RRIRPRPPRLPRPRPRPGSTPRP", "shrunken log2 fold change": 0.123}, {"sequence": "RRIRCRPPRLPRPRPRPMEHPRP", "shrunken log2 fold change": -0.0605}, {"sequence": "RRIRRRPPRLPRPRPRPNQIPRP", "shrunken log2 fold change": -0.349}, {"sequence": "RRIRARPPRLPRPRPRPWCTPRP", "shrunken log2 fold change": -0.284}, {"sequence": "RRIRWRPPRLPRPRPRPTDSPRP", "shrunken log2 fold change": -0.195}, {"sequence": "RRIRDRPPRLPRPRPRPEKSPRP", "shrunken log2 fold change": -0.00264}, {"sequence": "RRIRGRPPRLPRPRPRPYHIPRP", "shrunken log2 fold change": 0.158}, {"sequence": "RRIRSRPPRLPRPRPRPAEPPRP", "shrunken log2 fold change": -0.16}, {"sequence": "RRIRPRPPRLPRPRPRPAQAPRP", "shrunken log2 fold change": 0.329}, {"sequence": "RRIRIRPPRLPRPRPRPMTKPRP", "shrunken log2 fold change": 0.0447}, {"sequence": "RRIRHRPPRLPRPRPRPIAVPRP", "shrunken log2 fold change": -0.219}, {"sequence": "RRIRMRPPRLPRPRPRPTTFPRP", "shrunken log2 fold change": 0.00693}, {"sequence": "RRIRQRPPRLPRPRPRPVEWPRP", "shrunken log2 fold change": 0.0152}, {"sequence": "RRIRHRPPRLPRPRPRPNDKPRP", "shrunken log2 fold change": -0.526}, {"sequence": "RRIRVRPPRLPRPRPRPMFWPRP", "shrunken log2 fold change": 0.285}, {"sequence": "RRIRTRPPRLPRPRPRPGYVPRP", "shrunken log2 fold change": -0.526}, {"sequence": "RRIRMRPPRLPRPRPRPMCAPRP", "shrunken log2 fold change": 1.57}, {"sequence": "RRIRYRPPRLPRPRPRPSRCPRP", "shrunken log2 fold change": -0.154}, {"sequence": "RRIRLRPPRLPRPRPRPQNYPRP", "shrunken log2 fold change": -0.626}, {"sequence": "RRIRMRPPRLPRPRPRPGCLPRP", "shrunken log2 fold change": 0.503}, {"sequence": "RRIRLRPPRLPRPRPRPATYPRP", "shrunken log2 fold change": -0.212}, {"sequence": "RRIRQRPPRLPRPRPRPHEHPRP", "shrunken log2 fold change": 0.0439}, {"sequence": "RRIRYRPPRLPRPRPRPQQSPRP", "shrunken log2 fold change": -0.454}, {"sequence": "RRIRDRPPRLPRPRPRPLRPPRP", "shrunken log2 fold change": 1.15}, {"sequence": "RRIRIRPPRLPRPRPRPGIEPRP", "shrunken log2 fold change": -0.154}, {"sequence": "RRIRERPPRLPRPRPRPQDVPRP", "shrunken log2 fold change": -0.177}, {"sequence": "RRIRMRPPRLPRPRPRPCVHPRP", "shrunken log2 fold change": 0.0648}, {"sequence": "RRIRKRPPRLPRPRPRPKPLPRP", "shrunken log2 fold change": 0.687}, {"sequence": "RRIRQRPPRLPRPRPRPHHTPRP", "shrunken log2 fold change": -0.0489}, {"sequence": "RRIRGRPPRLPRPRPRPMIAPRP", "shrunken log2 fold change": 0.915}, {"sequence": "RRIRDRPPRLPRPRPRPWRIPRP", "shrunken log2 fold change": -0.139}, {"sequence": "RRIRRRPPRLPRPRPRPMPVPRP", "shrunken log2 fold change": 0.388}, {"sequence": "RRIRHRPPRLPRPRPRPYMAPRP", "shrunken log2 fold change": -0.339}, {"sequence": "RRIRLRPPRLPRPRPRPCWAPRP", "shrunken log2 fold change": -0.0392}, {"sequence": "RRIRHRPPRLPRPRPRPACPPRP", "shrunken log2 fold change": -0.0965}, {"sequence": "RRIRIRPPRLPRPRPRPQGDPRP", "shrunken log2 fold change": 0.0169}, {"sequence": "RRIRCRPPRLPRPRPRPYWIPRP", "shrunken log2 fold change": -1.17}, {"sequence": "RRIRQRPPRLPRPRPRPMLTPRP", "shrunken log2 fold change": -0.185}, {"sequence": "RRIRHRPPRLPRPRPRPGNDPRP", "shrunken log2 fold change": -0.583}, {"sequence": "RRIRPRPPRLPRPRPRPSVIPRP", "shrunken log2 fold change": -0.00563}, {"sequence": "RRIRSRPPRLPRPRPRPPQDPRP", "shrunken log2 fold change": 0.264}, {"sequence": "RRIRTRPPRLPRPRPRPKSRPRP", "shrunken log2 fold change": -0.0444}, {"sequence": "RRIRRRPPRLPRPRPRPWFMPRP", "shrunken log2 fold change": -0.125}, {"sequence": "RRIRMRPPRLPRPRPRPKSYPRP", "shrunken log2 fold change": 0.0526}, {"sequence": "RRIRPRPPRLPRPRPRPDMRPRP", "shrunken log2 fold change": 0.861}, {"sequence": "RRIRTRPPRLPRPRPRPLRLPRP", "shrunken log2 fold change": 0.219}, {"sequence": "RRIRWRPPRLPRPRPRPINGPRP", "shrunken log2 fold change": -0.0517}, {"sequence": "RRIRFRPPRLPRPRPRPYFMPRP", "shrunken log2 fold change": -1.02}, {"sequence": "RRIRVRPPRLPRPRPRPCGYPRP", "shrunken log2 fold change": 0.0222}, {"sequence": "RRIRQRPPRLPRPRPRPCLVPRP", "shrunken log2 fold change": -0.252}, {"sequence": "RRIRNRPPRLPRPRPRPITCPRP", "shrunken log2 fold change": -0.166}, {"sequence": "RRIRQRPPRLPRPRPRPTMMPRP", "shrunken log2 fold change": -0.194}, {"sequence": "RRIRTRPPRLPRPRPRPSCFPRP", "shrunken log2 fold change": -0.0671}, {"sequence": "RRIRKRPPRLPRPRPRPGGQPRP", "shrunken log2 fold change": 0.108}, {"sequence": "RRIRKRPPRLPRPRPRPDGQPRP", "shrunken log2 fold change": 0.0566}, {"sequence": "RRIRNRPPRLPRPRPRPCSPPRP", "shrunken log2 fold change": -0.354}, {"sequence": "RRIRHRPPRLPRPRPRPCNAPRP", "shrunken log2 fold change": 0.0746}, {"sequence": "RRIRVRPPRLPRPRPRPVFLPRP", "shrunken log2 fold change": -0.339}, {"sequence": "RRIRARPPRLPRPRPRPIKVPRP", "shrunken log2 fold change": -0.104}, {"sequence": "RRIRNRPPRLPRPRPRPLAPPRP", "shrunken log2 fold change": 0.262}, {"sequence": "RRIRVRPPRLPRPRPRPHVRPRP", "shrunken log2 fold change": -0.0188}, {"sequence": "RRIRERPPRLPRPRPRPWQSPRP", "shrunken log2 fold change": -0.00865}, {"sequence": "RRIRARPPRLPRPRPRPTQFPRP", "shrunken log2 fold change": 0.071}, {"sequence": "RRIRNRPPRLPRPRPRPQGCPRP", "shrunken log2 fold change": 0.0942}]}]}
